Experimental data published in article PMC7092852 (Biochemical and Biophysical Research Communications, 2005).

Biological target: the molecule itself
Test: SEC

B1: 2-helix protein (native single chain NHR + CHR of syncytin, amino acids 349-445) (domain or fragment)
chain: not shown
- stoichiometry N: 3
